Article PMC6446838

Columns and labels:
[1] = target: full-length KIF5B-GFP with C-terminal Strep-tag (human) (UniProt P33176)
[2] = target: K560-GFP with C-terminal Strep-tag, purified (human) (UniProt P33176)
Sequence of K560-GFP with C-terminal Strep-tag, purified (human) (P33176 1-560): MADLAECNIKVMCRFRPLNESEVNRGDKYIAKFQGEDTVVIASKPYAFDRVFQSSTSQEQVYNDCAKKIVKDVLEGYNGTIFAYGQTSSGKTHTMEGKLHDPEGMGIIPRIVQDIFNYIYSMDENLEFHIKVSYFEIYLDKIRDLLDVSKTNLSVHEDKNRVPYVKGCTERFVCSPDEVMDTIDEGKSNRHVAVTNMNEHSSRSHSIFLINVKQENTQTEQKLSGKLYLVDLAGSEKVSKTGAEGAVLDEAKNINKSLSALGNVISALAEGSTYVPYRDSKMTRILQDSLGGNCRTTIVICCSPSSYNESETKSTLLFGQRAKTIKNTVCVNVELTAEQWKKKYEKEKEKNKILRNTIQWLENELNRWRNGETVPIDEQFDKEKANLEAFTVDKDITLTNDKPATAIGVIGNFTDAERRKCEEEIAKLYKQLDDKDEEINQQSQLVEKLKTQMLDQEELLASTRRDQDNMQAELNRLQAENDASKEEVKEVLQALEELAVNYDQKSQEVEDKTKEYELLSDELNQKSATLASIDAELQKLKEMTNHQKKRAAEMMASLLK

Sequence of Alexa Fluor 647–labeled SNAP-tag-MAP7, full length (Q14244 whole entry): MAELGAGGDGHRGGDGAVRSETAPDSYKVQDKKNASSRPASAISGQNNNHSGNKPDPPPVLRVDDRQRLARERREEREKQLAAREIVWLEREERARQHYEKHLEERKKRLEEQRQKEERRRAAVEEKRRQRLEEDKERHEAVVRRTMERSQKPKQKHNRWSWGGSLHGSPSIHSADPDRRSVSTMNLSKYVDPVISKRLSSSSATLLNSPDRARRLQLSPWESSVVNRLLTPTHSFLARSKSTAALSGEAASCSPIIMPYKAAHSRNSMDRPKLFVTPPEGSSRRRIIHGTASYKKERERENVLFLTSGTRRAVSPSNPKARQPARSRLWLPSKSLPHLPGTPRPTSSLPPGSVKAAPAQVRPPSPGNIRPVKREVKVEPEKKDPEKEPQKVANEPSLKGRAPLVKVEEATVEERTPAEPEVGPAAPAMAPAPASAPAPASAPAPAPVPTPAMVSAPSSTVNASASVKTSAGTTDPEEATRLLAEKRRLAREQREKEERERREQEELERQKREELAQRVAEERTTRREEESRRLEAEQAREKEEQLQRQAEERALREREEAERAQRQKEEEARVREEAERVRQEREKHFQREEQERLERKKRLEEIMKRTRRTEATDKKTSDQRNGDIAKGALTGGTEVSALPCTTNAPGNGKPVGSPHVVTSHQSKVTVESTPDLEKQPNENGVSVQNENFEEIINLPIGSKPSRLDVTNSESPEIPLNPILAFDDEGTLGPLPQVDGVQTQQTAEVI
Sequence of full-length KIF5B-GFP with C-terminal Strep-tag (human) (P33176 whole entry): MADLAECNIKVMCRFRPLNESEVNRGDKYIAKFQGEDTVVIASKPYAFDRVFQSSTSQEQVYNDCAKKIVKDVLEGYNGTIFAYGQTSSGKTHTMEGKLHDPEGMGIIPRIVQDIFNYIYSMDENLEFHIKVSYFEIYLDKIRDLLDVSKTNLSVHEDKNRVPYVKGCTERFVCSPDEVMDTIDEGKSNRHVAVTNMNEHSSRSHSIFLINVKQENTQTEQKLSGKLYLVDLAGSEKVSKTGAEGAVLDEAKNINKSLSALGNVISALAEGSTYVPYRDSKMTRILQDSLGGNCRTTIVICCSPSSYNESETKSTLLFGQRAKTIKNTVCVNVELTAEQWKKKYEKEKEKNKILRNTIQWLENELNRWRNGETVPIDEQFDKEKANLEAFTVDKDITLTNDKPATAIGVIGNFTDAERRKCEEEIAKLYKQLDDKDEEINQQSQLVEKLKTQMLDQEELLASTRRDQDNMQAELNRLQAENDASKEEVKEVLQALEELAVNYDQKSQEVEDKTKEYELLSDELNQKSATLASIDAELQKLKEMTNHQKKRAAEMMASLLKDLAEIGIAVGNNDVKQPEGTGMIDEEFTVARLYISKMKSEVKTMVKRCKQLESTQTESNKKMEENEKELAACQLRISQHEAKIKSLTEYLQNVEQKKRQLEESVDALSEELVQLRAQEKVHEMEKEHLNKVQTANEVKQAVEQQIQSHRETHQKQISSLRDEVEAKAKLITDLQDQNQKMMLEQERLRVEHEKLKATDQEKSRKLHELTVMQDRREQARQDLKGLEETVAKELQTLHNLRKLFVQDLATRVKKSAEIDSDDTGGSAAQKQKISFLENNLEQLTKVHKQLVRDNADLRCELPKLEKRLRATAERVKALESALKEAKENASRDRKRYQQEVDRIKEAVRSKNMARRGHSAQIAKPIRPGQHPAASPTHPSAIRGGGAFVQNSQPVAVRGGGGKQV

- events of full-length KIF5B-GFP on dynamic MTs in vitro (short binding events and landing followed by processive movement), with MAP against kinesin alone [1]: > 60 fold
- run length of full-length KIF5B-GFP on dynamic MTs in vitro, with MAP against kinesin alone [1]: 1.6 fold
- landing frequency of K560-GFP on MAP-decorated dynamic MTs in vitro, increasing MAP concentrations, against K560 alone [2]: < 23.6 fold
- processivity (run length) of K560-GFP on dynamic MTs in vitro [2]: 2 fold
Substance: Alexa Fluor 647–labeled SNAP-tag-MAP7, full length (from UniProt Q14244 1-749) (natural protein)
